Tested on: rLDHA (Homo sapiens)
Experiment: SPR
Conditions: His-tag pull-down: protein on beads in 50 mM Na3PO4, 300 mM NaCl, 0.01% Tween-20, pH 8.0, RNA binding 2 h in 3.25 mM Na3PO4, 70 mM NaCl

How did the Kd turn out when HULC lncRNA (in vitro transcribed) was run?
The Kd was 29 nM.
